Molecular target: T1, γ-secretase (Homo sapiens, UniProt P49768)
T1 construct: made in house; host or cells: suspension HEK cells (Freestyle 293), transiently transfected
Assay: In vitro γ-secretase assay (purified γ-secretase in proteoliposomes cleaving recombinant C100-FLAG substrate)
Format: biochemical
Conditions: C100-FLAG 500 nM, Figure 1B, 1F
Protocol: Purified γ-secretase was incorporated into vesicles by first dissolving total brain lipid extract (1.25 mM final) in 50 mM HEPES pH 7.0, 150 mM NaCl, 0.25% CHAPSO. γ-Secretase (5–30 nM final concentration) was then added to the solution and detergent removed by mixing SM-2 biobeads (62 mg/mL) (Bio-Rad) with the lipid/detergent/enzyme solution for two hrs at 4°C. Biobeads were removed from the newly formed proteoliposomes and reactions were initiated with the addition of purified recombinant substrate C100-FLAG substrate. Reactions were quenched with SDS loading dye for western blot or centrifuged for ELISA or mass spectrometry on Aβ or AICD fragments, respectively.
For inhibition studies, tripeptide fragments or inhibitors were dissolved in DMSO prior to being diluted into the reaction buffer. The concentration of C100-FLAG used in all in vitro assays was 500 nM unless otherwise stated.
Tripeptide IC50 inhibition was fit to: vi/vo=1/(1+[I]/IC50)
Tripeptide inhibition was globally fit to the following noncompetitive equation: v= Vmax[S]/[S](1+[I]/Kii)+Km(1+[I]/Ki)
Inhibitor cross-competition was globally fit to: 1/vij=1/v0(1+[I]/Ki+[J]/Kj+[I][J]/αKiKj)

## AFA: synthetic tripeptide predicted to clash with the S' pocket binding site
  inhibition of γ-secretase activity (relative potency in words): very weak inhibitor

## FAF: synthetic tripeptide of the predicted optimal binding sequence for the large-small-large S1'-S2'-S3' pockets
  inhibition of γ-secretase activity (relative potency in words): more potent inhibitor of γ-secretase activity than any of the naturally occurring APP-derived tripeptides
